Consider 3 molecules from patent publication US20240124607A1 (Merck Sharp & Dohme, published 2024).

Assay [1] addresses T1, Human CEACAM5 (E398) (human, UniProt P06731 35-685, limits assumed).
T1 construct: also called hCEACAM5
T1 sequence: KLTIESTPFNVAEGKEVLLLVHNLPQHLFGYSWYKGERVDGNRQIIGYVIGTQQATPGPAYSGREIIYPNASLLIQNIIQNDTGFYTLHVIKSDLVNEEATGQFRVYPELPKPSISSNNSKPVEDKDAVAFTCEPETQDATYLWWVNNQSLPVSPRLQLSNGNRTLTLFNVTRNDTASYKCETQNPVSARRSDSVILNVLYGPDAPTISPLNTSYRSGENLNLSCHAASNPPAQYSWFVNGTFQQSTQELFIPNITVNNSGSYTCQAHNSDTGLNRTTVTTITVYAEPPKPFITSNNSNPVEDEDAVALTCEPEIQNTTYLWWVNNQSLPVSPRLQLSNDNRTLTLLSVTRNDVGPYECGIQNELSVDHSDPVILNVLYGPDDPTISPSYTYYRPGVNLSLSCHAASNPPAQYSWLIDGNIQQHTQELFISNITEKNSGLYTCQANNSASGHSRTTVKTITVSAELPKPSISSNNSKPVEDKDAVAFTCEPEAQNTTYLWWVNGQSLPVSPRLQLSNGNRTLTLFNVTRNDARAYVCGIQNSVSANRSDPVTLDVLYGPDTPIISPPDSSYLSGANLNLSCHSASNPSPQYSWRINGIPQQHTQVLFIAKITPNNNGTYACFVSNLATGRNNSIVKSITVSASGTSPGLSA
Put plainly: SPR, 37C, pH 7.4. Background: Surface plasmon resonance follows binding to a sensor surface in real time, without labels.

The target in assay [2] is T2, human CEACAM8 on Ba/F3 cells (human, UniProt P31997 35-320).
T2 construct: whole, on cells
T2 sequence (looked up): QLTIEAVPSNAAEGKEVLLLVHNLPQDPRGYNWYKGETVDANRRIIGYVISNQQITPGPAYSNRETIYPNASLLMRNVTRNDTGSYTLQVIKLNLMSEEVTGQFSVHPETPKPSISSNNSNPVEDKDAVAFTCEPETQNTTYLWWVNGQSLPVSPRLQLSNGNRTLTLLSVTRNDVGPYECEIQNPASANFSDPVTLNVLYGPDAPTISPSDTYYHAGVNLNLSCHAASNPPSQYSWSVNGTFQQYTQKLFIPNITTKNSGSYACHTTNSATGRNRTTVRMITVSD
Put plainly: flow cytometry on Ba/F3 cells expressing human CEACAM8, fold over background (FOB), 5-fold dilutions from 1600 nM. As to the method: To examine the binding specificity of the TriNKETs to CEACAM5 compared to other CEACAM family members, Ba/F3 cells were engineered to express one of human CEACAM1, CEACAM6, CEACAM8, or cynomolgus CEACAM5. CEACAM5 TriNKETs were evaluated by flow cytometry starting at 1600 nM followed by 7 5-fold dilutions.

Assay [3] concerns the target T3, human CD16A (FcγRIIIA) V158 (human, UniProt P08637 17-208, limits assumed, biotinylated in the assay of Table 21).
T3 construct: also called CD16A (V158/V176)
Briefly: SPR, biotin-CD16A on SA chip, 25C, pH 7.4. As to the method: (§1) Binding to human and cynomolgus CD16A was assessed using biotinylated CD16A captured on a streptavidin (SA) sensor chip (Cytiva, #BR100531). AB0411, AB0466, or AB0621 was titrated from 1500 nM at 25° C. at 30 μL/min for 150 sec association followed by 300 sec dissociation. The surface of the chip was regenerated with 2 mM sodium hydroxide for 5 sec at 30 μL/min. Running buffer was HBS-EP+. […] The V158 isoform bound ˜2- to 3-fold tighter than the F158 isoform as expected.

Assay [4] has as its target T4, Cyno FcγRIIIA (cynomolgus monkey, UniProt Q8SPW2 17-208, limits assumed, biotinylated).
T4 construct: also called cynomolgus CD16A
Briefly: SPR, biotin-CD16A on SA chip, 25C, pH 7.4. The method, then:
as §1

For assay [5], the target named is human CD16A (FcγRIIIA) F158 (human, UniProt P08637 17-208, limits assumed, biotinylated). Briefly: SPR, biotin-CD16A on SA chip, 25C, pH 7.4. As to the method: as §1
Sequence of human CD16A (FcγRIIIA) F158 (P08637 17-208 limits assumed): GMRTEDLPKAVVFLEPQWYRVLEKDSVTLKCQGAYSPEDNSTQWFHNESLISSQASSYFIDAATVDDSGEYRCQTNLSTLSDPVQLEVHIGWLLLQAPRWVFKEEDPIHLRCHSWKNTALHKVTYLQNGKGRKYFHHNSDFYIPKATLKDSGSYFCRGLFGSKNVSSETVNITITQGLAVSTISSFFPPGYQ
Assay [6] concerns the target T5, soluble mouse Fc-human NKG2D dimer (human, UniProt P26718 78-216, limits assumed).
T5 construct: also called NKG2D-mFc; human NKG2D fused to a mouse Fc
T5 sequence (looked up): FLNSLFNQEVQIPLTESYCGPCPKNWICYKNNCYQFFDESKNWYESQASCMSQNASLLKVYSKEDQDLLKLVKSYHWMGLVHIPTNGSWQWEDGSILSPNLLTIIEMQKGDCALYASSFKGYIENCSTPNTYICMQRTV
Put plainly: SPR, NKG2D-mFc captured, 37C, pH 6.0. As to the method: (§2) Binding to NKG2D was assessed by SPR using a mouse Fc capture kit (Cytiva, #BR100838) immobilized onto a CM5 chip. Human and cynomolgus NKG2D fused to a mouse Fc were captured and AB0411, AB0466, or AB0621 was titrated from 600 nM.

The target in assay [7] is T6, Cyno NKG2D-mFc (cynomolgus monkey, UniProt P61252 78-216, limits assumed).
T6 construct: also called cynomolgus NKG2D fused to a mouse Fc
T6 sequence (looked up): T5 sequence (looked up) with D38N, T128I
Briefly: SPR, NKG2D-mFc captured, 37C, pH 6.0. As to the method:
as §2

In assay [8] the target is T3, human CD16A (FcγRIIIA) V158. Put plainly: SPR, biotin-CD16A on SA chip, 25C, pH 6.0. The method, then:
as §1

Assay [9] concerns the target T4, Cyno FcγRIIIA. Put plainly: SPR, biotin-CD16A on SA chip, 25C, pH 6.0. The method, then:
as §1

Numbering of substitutions follows the chain as printed.

T4 sequence (Q8SPW2 17-208 limits assumed): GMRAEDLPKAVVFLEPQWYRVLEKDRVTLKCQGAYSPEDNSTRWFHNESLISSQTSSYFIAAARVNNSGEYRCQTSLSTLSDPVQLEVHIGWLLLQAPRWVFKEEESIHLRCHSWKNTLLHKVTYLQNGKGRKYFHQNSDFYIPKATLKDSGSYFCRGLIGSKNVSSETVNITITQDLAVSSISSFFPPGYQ
T3 sequence (P08637 17-208 F176V limits assumed): as the sequence (P08637 17-208 limits assumed) above, with F160V counted along it

B1: AB0466 F3' CEACAM5 TriNKET (bispecific antibody, human IgG1, kappa)
chain: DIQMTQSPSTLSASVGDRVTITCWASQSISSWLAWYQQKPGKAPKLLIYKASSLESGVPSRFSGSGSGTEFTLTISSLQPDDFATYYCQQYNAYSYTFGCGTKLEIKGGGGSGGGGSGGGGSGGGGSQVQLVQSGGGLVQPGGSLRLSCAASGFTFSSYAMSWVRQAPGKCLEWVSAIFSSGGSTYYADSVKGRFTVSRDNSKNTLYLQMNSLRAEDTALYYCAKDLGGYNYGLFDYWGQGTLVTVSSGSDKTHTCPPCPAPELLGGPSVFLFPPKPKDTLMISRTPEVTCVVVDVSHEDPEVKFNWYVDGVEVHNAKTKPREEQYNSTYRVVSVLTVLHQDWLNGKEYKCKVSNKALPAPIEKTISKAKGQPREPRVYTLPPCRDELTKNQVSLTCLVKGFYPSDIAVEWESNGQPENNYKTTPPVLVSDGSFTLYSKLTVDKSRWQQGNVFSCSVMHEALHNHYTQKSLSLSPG
heavy: EVQLVESGGGLVKPGGSLRLSCAASGFTFSSYSMNWVRQAPGKGLEWVSSISSSSSYIYYADSVKGRFTISRDNAKNSLYLQMNSLRAEDTAVYYCARGAPIGAAAGWFDPWGQGTLVTVSSASTKGPSVFPLAPSSKSTSGGTAALGCLVKDYFPEPVTVSWNSGALTSGVHTFPAVLQSSGLYSLSSVVTVPSSSLGTQTYICNVNHKPSNTKVDKKVEPKSCDKTHTCPPCPAPELLGGPSVFLFPPKPKDTLMISRTPEVTCVVVDVSHEDPEVKFNWYVDGVEVHNAKTKPREEQYNSTYRVVSVLTVLHQDWLNGKEYKCKVSNKALPAPIEKTISKAKGQPREPQVCTLPPSRDELTENQVSLTCLVKGFYPSDIAVEWESNGQPENNYKTTPPVLDSDGSFFLYSWLTVDKSRWQQGNVFSCSVMHEALHNHYTQKSLSLSPG
light: DIQMTQSPSSVSASVGDRVTITCRASQGISSWLAWYQQKPGKAPKLLIYAASSLQSGVPSRFSGSGSGTDFTLTISSLQPEDFATYYCQQGVSFPRTFGGGTKVEIKRTVAAPSVFIFPPSDEQLKSGTASVVCLLNNFYPREAKVQWKVDNALQSGNSQESVTEQDSKDSTYSLSSTLTLSKADYEKHKVYACEVTHQGLSSPVTKSFNRGEC
Consider B1, for which the Kd in [1] came out at 0.0072 µM; in assay [3], 0.26 µM; in [4], 0.14 µM; in assay [5] it was 0.69 µM; in assay [6] it was 0.48 µM; in assay [7] it was 0.42 µM. Also, the Kd worked out at 0.047 µM in [8] and 0.019 µM in assay [9]. The kon is 190000 M⁻¹ s⁻¹ in assay [1]; 300000 M⁻¹ s⁻¹ in assay [3]; 790000 M⁻¹ s⁻¹ in assay [4]; 310000 M⁻¹ s⁻¹ in assay [5]; 240000 M⁻¹ s⁻¹ in assay [6]; 310000 M⁻¹ s⁻¹ in assay [7]. Also, the kon is 820000 M⁻¹ s⁻¹ in [8] and 2.4e+06 M⁻¹ s⁻¹ in [9]. The binding result in assay [2] is on record as “no binding (tested: 1600 nM)”. In addition, the koff in assay [3] worked out at 0.078 s⁻¹; in assay [4], 0.11 s⁻¹; in assay [5] it was 0.21 s⁻¹; in assay [6] it was 0.12 s⁻¹; in assay [7], 0.11 s⁻¹; in assay [8], 0.038 s⁻¹. This molecule also displayed a koff in [9] of 0.047 s⁻¹.

B2: AB0411 F3' CEACAM5 TriNKET (bispecific antibody, human IgG1, kappa)
chain: DIQLTQSPATLSVSPGERATLSCRASQSVSSSYLAWYQQKPGQAPRLLIYGASSRATGIPDRFSGSGSGTDFTLTISRLEPEDFAVYYCQQYNNWPLTFGCGTKVEIKGGGGSGGGGSGGGGSGGGGSQVQLVQSGGGLVQPGGSLRLSCAASGFTFTSYAMSWVRQAPGKCLEWVSAISGTGDSTFYADSVKGRFTFSRDNSKNTLYLQMNSLRAEDTAVYYCAKDLGWLQYGLFDYWGQGTLVTVSSGSDKTHTCPPCPAPELLGGPSVFLFPPKPKDTLMISRTPEVTCVVVDVSHEDPEVKFNWYVDGVEVHNAKTKPREEQYNSTYRVVSVLTVLHQDWLNGKEYKCKVSNKALPAPIEKTISKAKGQPREPRVYTLPPCRDELTKNQVSLTCLVKGFYPSDIAVEWESNGQPENNYKTTPPVLVSDGSFTLYSKLTVDKSRWQQGNVFSCSVMHEALHNHYTQKSLSLSPG
heavy: B1 heavy
light: B1 light
With B2, the Kd in [1] is 0.0017 µM; in assay [3], 0.12 µM; in assay [4], 0.1 µM; in assay [5] it was 0.37 µM; in assay [6] it was 0.49 µM; in assay [7], 0.5 µM. The dissociation constant (Kd) in assay [8] stood at 0.036 µM; in assay [9], 0.016 µM. Besides, the kon in assay [1] turned out to be 270000 M⁻¹ s⁻¹; in assay [3] it was 230000 M⁻¹ s⁻¹; in [4], 730000 M⁻¹ s⁻¹; in assay [5], 220000 M⁻¹ s⁻¹; in assay [6], 280000 M⁻¹ s⁻¹; in assay [7] it was 270000 M⁻¹ s⁻¹. In addition, the kon in assay [8] came to 830000 M⁻¹ s⁻¹. Besides, the koff came to 0.029 s⁻¹ in [3]; 0.075 s⁻¹ in assay [4]; 0.086 s⁻¹ in [5]; 0.13 s⁻¹ in assay [6]; 0.14 s⁻¹ in assay [7]; 0.029 s⁻¹ in assay [8].

B3: AB0264 F3' CEACAM5 TriNKET (bispecific antibody, human IgG1, kappa)
chain: DIVMTQSPDSLAVSLGERATINCKSSHSLLYGNFQNNYLAWYQQKPGQPPKLLIYWASTRESGVPDRFSGSGSGTDFTLTISSLQAEDVAVYYCQQYYSYPYTFGCGTKLEIKGGGGSGGGGSGGGGSGGGGSQVQLVQSGAEVKKPGASVKVSCKASGYTFTAYTIHWVRQAPGQCLEWMGYINPSSGYTEYNQKFKDRTTLTADTSIPTAYMELSRLRSDDTAVYYCTREGGLLWFDYWGQGTLVTVSSGSDKTHTCPPCPAPELLGGPSVFLFPPKPKDTLMISRTPEVTCVVVDVSHEDPEVKFNWYVDGVEVHNAKTKPREEQYNSTYRVVSVLTVLHQDWLNGKEYKCKVSNKALPAPIEKTISKAKGQPREPRVYTLPPCRDELTKNQVSLTCLVKGFYPSDIAVEWESNGQPENNYKTTPPVLVSDGSFTLYSKLTVDKSRWQQGNVFSCSVMHEALHNHYTQKSLSLSPG
heavy: B1 heavy
light: B1 light
In the case of B3, the binding result in assay [2] is listed as “no binding (tested: 1600 nM)”.

As usually defined, the Kd is a measure of binding affinity in units of concentration. Lower therefore signals higher affinity. A word on the kon: it is the second-order rate constant of association. Lower therefore signals slower complex formation. What is called koff is the first-order rate constant of dissociation. A lower koff goes with a long-lived complex.
